Literature values in PMC4540119.
Read-outs that look alike come from different tables or passages of the source.

What was measured:
[1] = target: integrin α6β1 (Homo sapiens) (UniProt P23229)
[2] = target: integrin α6β1 (Homo sapiens) (UniProt P23229); remark: listed apart in the source

Chain of UniProt P23229 (P23229 24-1050, chain 1 of 2): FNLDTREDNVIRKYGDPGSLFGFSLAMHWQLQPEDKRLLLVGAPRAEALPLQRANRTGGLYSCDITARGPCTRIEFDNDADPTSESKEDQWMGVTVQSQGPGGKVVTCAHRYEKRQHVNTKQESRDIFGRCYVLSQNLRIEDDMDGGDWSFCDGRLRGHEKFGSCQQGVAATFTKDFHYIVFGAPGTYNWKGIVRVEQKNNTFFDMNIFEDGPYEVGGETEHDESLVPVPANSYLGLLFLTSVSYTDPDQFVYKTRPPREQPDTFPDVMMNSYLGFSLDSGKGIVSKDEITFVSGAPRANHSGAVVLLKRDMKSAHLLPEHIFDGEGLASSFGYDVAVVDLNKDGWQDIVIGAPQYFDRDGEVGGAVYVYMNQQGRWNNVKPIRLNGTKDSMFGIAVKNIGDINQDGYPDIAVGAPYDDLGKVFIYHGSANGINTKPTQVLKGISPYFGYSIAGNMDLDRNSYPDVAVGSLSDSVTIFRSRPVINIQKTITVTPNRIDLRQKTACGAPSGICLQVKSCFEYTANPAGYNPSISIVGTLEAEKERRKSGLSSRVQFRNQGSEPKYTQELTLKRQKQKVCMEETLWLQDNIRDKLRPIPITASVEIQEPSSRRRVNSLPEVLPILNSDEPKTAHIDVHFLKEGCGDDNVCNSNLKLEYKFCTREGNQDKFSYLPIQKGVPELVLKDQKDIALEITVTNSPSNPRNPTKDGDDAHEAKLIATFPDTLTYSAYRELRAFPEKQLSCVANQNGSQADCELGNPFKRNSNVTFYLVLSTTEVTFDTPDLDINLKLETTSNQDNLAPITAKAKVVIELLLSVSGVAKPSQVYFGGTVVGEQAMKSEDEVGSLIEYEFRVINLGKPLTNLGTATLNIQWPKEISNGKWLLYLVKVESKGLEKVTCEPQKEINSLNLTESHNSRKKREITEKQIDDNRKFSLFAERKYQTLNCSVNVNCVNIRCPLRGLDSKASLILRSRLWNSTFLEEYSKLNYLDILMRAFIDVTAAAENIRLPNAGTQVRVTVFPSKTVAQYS
Chain of UniProt P23229 (P05556 21-728, chain 2 of 2, further chain): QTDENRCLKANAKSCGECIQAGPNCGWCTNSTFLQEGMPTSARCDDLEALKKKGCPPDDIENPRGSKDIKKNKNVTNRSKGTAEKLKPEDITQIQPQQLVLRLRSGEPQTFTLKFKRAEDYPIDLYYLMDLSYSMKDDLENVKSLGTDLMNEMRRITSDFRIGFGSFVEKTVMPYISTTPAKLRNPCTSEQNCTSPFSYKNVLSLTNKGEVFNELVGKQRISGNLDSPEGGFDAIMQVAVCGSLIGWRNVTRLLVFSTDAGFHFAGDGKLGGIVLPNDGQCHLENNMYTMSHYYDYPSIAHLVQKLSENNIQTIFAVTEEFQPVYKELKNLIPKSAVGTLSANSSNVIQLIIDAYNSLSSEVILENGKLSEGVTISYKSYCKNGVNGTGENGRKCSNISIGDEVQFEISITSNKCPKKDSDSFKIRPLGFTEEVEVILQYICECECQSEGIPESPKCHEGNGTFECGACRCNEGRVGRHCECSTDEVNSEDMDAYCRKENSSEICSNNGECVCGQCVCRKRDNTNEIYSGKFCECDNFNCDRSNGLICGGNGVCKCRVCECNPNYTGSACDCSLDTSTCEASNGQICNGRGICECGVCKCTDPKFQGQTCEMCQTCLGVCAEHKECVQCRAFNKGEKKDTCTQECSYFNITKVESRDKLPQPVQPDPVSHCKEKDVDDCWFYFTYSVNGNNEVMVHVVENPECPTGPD

| Kd [1] | Kd [2] | Substance |
| --- | --- | --- |
| 9.5 nM | – | laminin-111 (from UniProt P25391) |
| – | 0.72 nM | laminin-521 (from UniProt O15230) |
